Source: paper PMC5064212, “HigB of Pseudomonas aeruginosa Enhances Killing of Phagocytes by Up-Regulating the Type III Secretion System in Ciprofloxacin Induced Persister Cells”

B1: 38-bp fragment with scrambled palindrome (EMSA-(M)) (dsDNA)
DNA 1: CTGTAGTGAAGTCTAGACTTAAGCATATGGGTTAATGA
DNA 2: TCATTAACCCATATGCTTAAGTCTAGACTTCACTACAG
B2: 38-bp higB-higA promoter fragment (dsDNA)
DNA 1: CTGTAGTGAAGTTAACGCTTAACGTTAAGGGTTAATGA
DNA 2: TCATTAACCCTTAACGTTAAGCGTTAACTTCACTACAG

Biological target: HigA-His (Pseudomonas aeruginosa PA14, UniProt A0A0H2ZHN2 1-101)
Experiment: EMSA; 0, 4 or 20 nM HigA, 300 ng DNA, 5 mM Ca2+
Settings: protein: recombinant; tags: His (6xHis with Gly-Gly linker at C-terminus per higA cloning primer S4); chain copies: 2; label: none (ethidium bromide stain); blunt

Row | Binder | binding result
1 | B1 | no binding
2 | B2 | binds
